From PMC6652007, “Metabolic engineering of Clostridium thermocellum for n-butanol production from cellulose” (Biotechnology for Biofuels, 2019) come the findings set out here.

Residue numbers refer to the chain shown, from its start. Names may count otherwise.

Substrate in data set [1]: NC(=O)C1=CN([C@@H]2O[C@H](COP(=O)(O)OP(=O)(O)OC[C@H]3O[C@@H](n4cnc5c(N)ncnc54)[C@H](OP(=O)(O)O)[C@@H]3O)[C@@H](O)[C@H]2O)C=CC1
Kind of data set: NAD(P)H oxidation, A340. Type of data set: biochemical, Winmispira thermophila. Particulars: crotonyl-CoA as substrate, 100 mM MOPS-KOH pH 7.5, 55 °C, varied: cofactor. The text has this:
(§1) NAD(P)H oxidation, A340 on St_Ter

Substrate in data set [2]: NC(=O)C1=CN([C@@H]2O[C@H](COP(=O)(O)OP(=O)(O)OC[C@H]3O[C@@H](n4cnc5c(N)ncnc54)[C@H](O)[C@@H]3O)[C@@H](O)[C@H]2O)C=CC1
In words: NAD(P)H oxidation, A340. Conditions: crotonyl-CoA as substrate, 100 mM MOPS-KOH pH 7.5, 55 °C, varied: cofactor. Type of data set: biochemical, Winmispira thermophila.
Text: as §1

Substrate in data set [3]: C/C=C/C(=O)SCCNC(=O)CCNC(=O)[C@H](O)C(C)(C)COP(=O)(O)OP(=O)(O)OC[C@H]1O[C@@H](n2cnc3c(N)ncnc32)[C@H](O)[C@@H]1OP(=O)(O)O
In words: NADH oxidation, A340. Type of data set: biochemical, Winmispira thermophila. Conditions: 0.3 mM NADH, 100 mM MOPS-KOH pH 7.5, 55 °C. The text has this:
NADH oxidation, A340 on St_Ter

Substrate in data set [4]: CC(=O)SCCNC(=O)CCNC(=O)[C@H](O)C(C)(C)COP(=O)(O)OP(=O)(O)OC[C@H]1O[C@@H](n2cnc3c(N)ncnc32)[C@H](O)[C@@H]1OP(=O)(O)O
Kind of data set: coupled Hbd assay, A340. Type of data set: biochemical, Thermoanaerobacterium thermosaccharolyticum. Particulars: coupled with Hbd, 100 mM MOPS-KOH pH 7.5, 55 °C. The text has this:
coupled Hbd assay, A340 on Tt_Thl

B1: St_Ter (Winmispira thermophila DSM 6578) (protein)
chain: MVIKPMIRNNICMNAHPEGCRLFVDRQIDYVRQRGPLSSGPKNVLVVGSSGGYGLATRIAAGFGAGAATIGVYFEKEPSEKRTGTPGWYAARHFLKRAEAAGLKVHDINGDAFSFEVKAQVVDLIKKEYGTIDLFVYSLASGVRTDPVSGVTYRSALKPIGRTYTSKALDPLKREVVQAAIEPASEEEIEATVKVMGGEDWQLWVEALKEGGVLAEGAVTVAYSYIGPELTRPIYREGTIGKAKEHLEATAKTLDEALASVGGKAYVSVNKAVVTRASAVIPAVPLYLSILFTVMKAKGIHEGCIEQMYRMLAERLYAGGPVPVDDEGRIRMDDWEMREDVQREVAEVWERITTETLDTEADVDGYLTDFLNLHGFGFKEIDYEKEVDPREG
notes: His-tagged (vector pD861-CH), codon-optimised, expressed in E. coli BL21(DE3)
With B1, the Km in data set [1] was 400 ± 100 µM; in data set [2] it was 30 ± 10 µM; in data set [3], 30 ± 10 µM. Moreover, the figures for the Vmax in data set [1] and in data set [2] were 12.2 µmol/min/mg and 18.2 µmol/min/mg, respectively.

B2: St_Ter (Winmispira thermophila DSM 6578; E75A) (protein)
chain: B1 chain with E75A
notes: as for B1
Consider B2, for which, in data set [1], the Km was 20 ± 10 µM and the Vmax was 68.1 µmol/min/mg. Moreover, in data set [2], the Km stood at 600 ± 100 µM and the Vmax came out at 10.3 µmol/min/mg.

B3: Tt_Thl (Thermoanaerobacterium thermosaccharolyticum DSM 571) (protein)
chain: MKEVVIASGVRTAVGKFGGTLLNVPAVDLGAVVIKEALKRANVKPEDVSEVIMGNVLQAGLGQNPARQAEIKAGIPVEVPAMTVNMVCGSGLRAVTLAAQAVMLGDADIVVAGGMENMSRAPYILNDARFGYRMNNGQLVDEMVYDGLTDVFNQYHMGITAENLAEKYGISREEQDEFAYRSQKLASEAISSGRFEDEIVPVIVPQKKGEPIEFKVDEHVRPNTTIEALAKLKPAFKKDGTVTAGNASGINDAAAAVVVMSKEKADELGIKPLATIKSFGYAGVDPSIMGIGPVYATRKALEKANLTVDDLDLIEANEAFAAQSLAVAKELKFNMDRVNVNGGAIAIGHPIGASGCRILVTLLYEMQKRNSHTGLATLCIGGGMGIAMVVER
notes: as for B1
On to B3, for which, in data set [4] (0.3 mM NADH), the Km was determined as 2400 ± 580 µM.

B4: Tt_Thl (Thermoanaerobacterium thermosaccharolyticum DSM 571; H156N/N223V/P222F/R133G) (protein)
chain: B3 chain with R133G, H156N, P222F, N223V
notes: as for B1
As for B4, in data set [4] (variant M2, NADH), the Michaelis-Menten constant (Km) was 2600 ± 500 µM and the Vmax turned out to be 45.2 µmol/min/mg.

B5: Tt_Thl (Thermoanaerobacterium thermosaccharolyticum DSM 571; N153Y/S287K/V77Q) (protein)
chain: B3 chain with V77Q, N153Y, S287K
notes: as for B1
With B5, in data set [4] (variant M1, NADH), the Km turned out to be 3300 ± 700 µM and the Vmax was found to be 15.3 µmol/min/mg.
